Measured values reported in patent US20170218066A1 (SORRENTO THERAPEUTICS, published 2017).
Numbering of substitutions follows the chain as printed.

B1: H6B1L-EV (antibody, V domains shown)
VH: QMQLVQSGAEVKKPGSSVKVSCKASGGTFSSYAYSWVRQAPGQGLEWMGGIIPSFGTANYAQKFQGRVTITADESTSTAYMELSSLRSEDTAVYYCARGPIVATITPLDYWGQGTLVTVSS
VL: SYVLMQPPSVSVAPGKTATIACGGENIGRKTVHWYQQKPGQAPVLVIYYDSDRPSGIPERFSGSNSGNTATLTISRVEAGDEADYYCLVWDSSSDHRIFGGGTKLTVL
notes: Fully human antibody of an IgG class, light chain variant of H6B1L
B2: H6B1L (antibody, V domains shown)
VH: B1 VH
VL: B1 VL with V3E
notes: Fully human antibody of an IgG class; also called parent antibody H6B1L; wild type antibody H6B1L
B3: H6B1L-EM (antibody, V domains shown)
VH: B1 VH
VL: B1 VL with M5T
notes: as for B1

Biological target: T1, human PD-L1 (human, UniProt Q9NZQ7 19-238, limits assumed)
T1 construct: also called Programmed death ligand 1; B7-H1
T1 sequence (Q9NZQ7 19-238 limits assumed): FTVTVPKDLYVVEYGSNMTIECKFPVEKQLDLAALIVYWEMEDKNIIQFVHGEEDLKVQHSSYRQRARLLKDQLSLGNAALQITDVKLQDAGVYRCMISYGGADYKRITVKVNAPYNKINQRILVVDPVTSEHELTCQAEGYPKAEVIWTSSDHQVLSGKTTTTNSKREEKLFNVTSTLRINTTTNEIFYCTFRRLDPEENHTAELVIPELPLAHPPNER
Experiment: Biacore (SPR)

B1 and B2 are within 1.5-fold of each other in Ka: 5.48e+08 M⁻¹ for the first, 5.4e+08 M⁻¹ for the second.

B3 showed a Ka of 6.44e+08 M⁻¹.

B1 and B2 are within 1.5-fold of each other in Kd: 1.82 nM for the first, 1.85 nM for the second.

B3 gave a Kd of 1.55 nM.

B1 and B2 are within 1.5-fold of each other in koff: 0.00287 s⁻¹ for the first, 0.0028 s⁻¹ for the second.

Work on B3 yielded a koff of 0.00214 s⁻¹.

B1 and B2 are within 1.5-fold of each other in kon: 1.57e+06 M⁻¹ s⁻¹ for the first, 1.51e+06 M⁻¹ s⁻¹ for the second.

In the case of B3, the kon is reported as 1.38e+06 M⁻¹ s⁻¹.
